Data published in article PMC2791212, “N-Terminal Deletion of Peptide:N-Glycanase Results in Enhanced Deglycosylation Activity” (PLoS ONE, 2009).

What was measured:
[1] = target: T1, Png1p-ΔH1 (33-363 aa), N-terminal H1 helix deletion mutant of S. cerevisiae Png1p (S. cerevisiae, UniProt Q02890 33-363); test: SPR; RNase B (40 µg/ml, 10 mM sodium acetate pH 5.31) amine-coupled to a CT405 chip; Png1p or Png1p-ΔH1 as analytes (80-1000 nM), 25°C, 10 mM HEPES pH 7.4, 5 µl/min; 1:1 Langmuir model, global fit; KD = koff/kon; conditions: both partners purified
T1 construct: Png1p (peptide:N-glycanase), S. cerevisiae W303-1a, amino acids 33-363 (lacks the N-terminal H1 helix), cloned into EcoRI and HindIII sites of pET-22b(+); Plasmid pET-22b/png1p-ΔH1; eluted as 'Protein-His6'; also called N-terminal H1 deletion mutant; source: E. coli BL21 (DE3) pLysS, purified (Ni2+-NTA)
T1 sequence (looked up): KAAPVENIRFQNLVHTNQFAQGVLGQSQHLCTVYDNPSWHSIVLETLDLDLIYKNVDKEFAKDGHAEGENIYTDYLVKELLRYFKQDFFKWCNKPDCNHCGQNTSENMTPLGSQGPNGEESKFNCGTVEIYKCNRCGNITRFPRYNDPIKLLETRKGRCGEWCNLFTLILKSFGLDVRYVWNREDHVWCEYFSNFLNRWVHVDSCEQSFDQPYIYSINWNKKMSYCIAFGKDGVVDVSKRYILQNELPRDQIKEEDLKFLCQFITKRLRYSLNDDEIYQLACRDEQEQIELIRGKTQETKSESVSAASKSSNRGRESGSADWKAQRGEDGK

[2] = target: T2, Peptide:N-glycanase from yeast (Png1p), full length (S. cerevisiae, UniProt Q02890 1-363); test: as above; conditions: both partners purified
T2 construct: Png1p (peptide:N-glycanase), S. cerevisiae W303-1a, gene amplified from genomic DNA, amino acids 1-363, cloned into EcoRI and HindIII sites of pET-22b(+); Plasmid pET-22b/png1p; eluted as 'Protein-His6'; The vector may add further residues at the N-terminus (cloning at EcoRI of pET-22b); also called PNGase; wild type Png1p; source: E. coli BL21 (DE3) pLysS, purified (Ni2+-NTA)
T2 sequence (looked up): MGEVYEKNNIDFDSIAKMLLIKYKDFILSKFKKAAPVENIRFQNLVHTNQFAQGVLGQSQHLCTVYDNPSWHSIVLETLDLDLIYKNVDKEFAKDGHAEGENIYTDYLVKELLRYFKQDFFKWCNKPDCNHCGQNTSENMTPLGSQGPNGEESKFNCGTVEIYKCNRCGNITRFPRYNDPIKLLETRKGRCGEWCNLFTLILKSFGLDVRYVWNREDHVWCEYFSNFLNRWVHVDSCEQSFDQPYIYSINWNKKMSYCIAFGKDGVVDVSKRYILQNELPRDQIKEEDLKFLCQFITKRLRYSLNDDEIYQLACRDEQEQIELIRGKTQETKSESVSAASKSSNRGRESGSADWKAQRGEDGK

B1: Ribonuclease B (RNase B), denatured (natural protein, UniProt P61823 27-150, looked up)
chain: KETAAAKFERQHMDSSTSAASSSNYCNQMMKSRNLTKDRCKPVNTFVHESLADVQAVCSQKNVACKNGQTNCYQSYSTMSITDCRETGSSKYPNCAYKTTQANKHIIVACEGNPYVPVHFDASV
modifications: N-linked glycan (glycoprotein; position not stated)
notes: Ribonuclease B, the glycosylated form of pancreatic ribonuclease; Denatured by heating at 100°C for 10 min and rapid freezing (deglycosylation methods); also called denatured RNase B
[1]
  Kd: 2.9 µM
  koff: 0.05 s⁻¹
  kon: 17000 M⁻¹ s⁻¹
[2]
  Kd: 7.7 µM
  koff: 0.094 s⁻¹
  kon: 12200 M⁻¹ s⁻¹
